Results as given in the DeepSol protein solubility set.

Assay: soluble on expression in E. coli; label from the status in PepcDB or PDB records

Sequence	soluble on expression in E. coli
MKLRSVTYALFIAGLAAFSTSSLAAQSLRFGYETSQTDSQHIAAKKFNDLLQERTKGELKLKLFPDSTLGNAQAMISGVRGGTIDMEMSGSNNFAGLSPVMNLLDVPFLFRDTAHAHKTLDGKVGDDLKASLEGKGLKVLAYWENGWRDVTNSRAPVKTPADLKGLKIRTNNSPMNIAAFKVFGANPIPMPFAEVYTGLETRTIDAQEHPINVVWSAKFFEVQKFLSLTHHAYSPLLVVINKAKFDGLSPEFQQALVSSAQEAGNYQRKLVAEDQQKIIDGMKEAGVEVITDLDRKAFSDALGNQVRDMFVKDVPQGADLLKAVDEVQ	not soluble
MSLSSSCIEEVSVPDDNWYRIANELLSRADITINGSAPSDIRVKNPDFFKRVLQEGSLGLGESYMDGWWECERLDIFFSKVLRAGLENQLPHHVKDTLRILGARLINLQSKKRAWIVGKEHYDLGNDLFSRMLDPYMQYSCAYWKDADTLEAAQQAKLKLICEKLQLQPGMRVLDIGCGWGGLSQYMATHYGVSVVGVTISAEQQKMAQTRCEGLDVSILLEDYRDLNDQFDRIVSVGMFEHVGPKNYNTYFEVVDRNLKPDGLFLLHTIGSKKTDHNVDPWINKYIFPNGCLPSVRQIAEASESHFVMEDWHNFGADYDTTLMAWHERFINAWPEIAGNYNERFKRMFSYYLNACAGAFRARDIQLWQVVFTRGVENGLRVPREGHHHHHH	soluble
GETLDGEAALQAAIARLAAGDIVAIKGIGGFHLACDAGNPAAVATLRARKHRPAKPLAVMLPTATGLPAAAAALMGSPAAPIVLIAKAQVSGLCDEIAPGLAEVGVMLPSNPLQHLLLQGLARPIVMTSGNLSGRPPALSNAQALNELADIADGFLLHNRDIVQRMDDSLVRSSGEMLRRARGYVPDALPL	not soluble
MDTGNNNNLPTLLKCNFPPYGKDYPGGFATGRFSDGRVPSDLIAEKLGLAKTLPAYMNPYLKPEDLLKGVTFASGGTGYDPLTAKIMSVISVWDQLINFKEYISKIKRHFGEEKAKDILEHSFFLVVSSSNDLAHTYLAQTHRYDRTSYANFLADSAVHFVRELHKLGARKIGVFSAVPVGCVPLQRTVFGDKELDGVILYINVYDTLFDMIQHPKKYGFEVADRGCCGKGLLAISYLCNSLNPFTCSNSSAYIFWDSYHPSERAYQVIVDNLLDKYLSKVY	soluble
MGSDKIHHHHHHMENLKTYFYTEDGVVKAVDGVSFEVREGETLGIVGESGSGKSVTSLSIMRLLDQNGKIVDGKIIFKGRNLLELSENEMRKIRGKEIAMIFQEPMVALNPVFTIGDQIMEAIILHQNVSEKEARKMAIDLLRKVGIPEPEKRVDEYPHQLSGGMRQRAMIAMALSCRPSLLIADEPTTALDVTIQAQILELMKELQKEYGMAIILITHDMGVVAEMSDKVAVMYAGKVVEYGDVKTIFTEPKHPYTYALLESIPRIDVEQERLKSIPGNVPDPLNFPPGCKFHPRCEFFEKGKCDVEEPELEDLDGNHKVRCFFWQKLDEMRHAKSEV	not soluble
MAHSQVGIQLISESTEKTLAELIALCAEHNIIHNEKSPLALVQTDDRLELRKLDEPKLGAVYVDFVGGTMAHRRKFGGGRGEAVAKAVGIKGSALPTVIDATAGLGRDAFVLAAIGCQVRLVERHPVVFLLLQDGLNRAYQDEEIGEMLQQNLHLLNVQHINELDPNSDYADVVYLDPMYPHKQKSALVKKEMRVFQHLVGADLDADELLLPALQLAKKRVVVKRPDYAEFLCGKQPHFSHETKNHRFDIYMGASQC	soluble
MAHHHHHHMPFNREILAAISFESGPLSSAEIAARRTPTEEPPKNLEVKSCDKRDEPRQNEATINLIRCMKWALGQSITSISHPAKQRPLNPKRDFSIKTKINLDVGVEKPKPGFCCSTAAATGVREQRNHHAPFYDAHGDSEEASHLDESDVESHDEVPNVPLAFVDYSPMCYRHIREFFNIDHRAYRDVLLRSRWHSTPTPGKSAAQLFFCGRDWVIKTMTHEESKFLRRILHRYYFFVLDHPYTLLPHFVGHHRLEINGEKMYIIIMQNVFVTGNTIHEKYDLKGSTVGRFATEAEKKKQTCTQKDLDINRPLHVGATRRNLLIEQMKMDCGFLNQCNIMDYSFLVGIHVLPMYEAHRPAPSTGSREYLGGAAALATSALEPSYLLGMGETMQPMALNGHPTAAADSAPTDGRCFKADQGGMMSADHPGGRREIYYIGIIDILQEYNSRKSMETLVFGMLKDRQKISAVPPKEYAARFVSFVSSIIV	not soluble
MEREQRHKVIMRTIDRPGITRIDALTELTGVSAVTIHRDLVELEQAGFLARTHGGAKRVPKRGTPQPFAVRQAEDREAKRILAQATAQLIADDEAVIFDNGTTCQAVAQELAGRPITALCLSLHSAVALGSRAGTNVFIPGGPVENDSLALSGPAVITALRDFSADVVILGSCSTSLEHGLATTTYDDAENKRAAIHAATRRILVVSARKLNHVSTFRFADVADLHQLVTTSDAPREILAEIRDLGVQVITVPAPDEQRSLEHHHHHH	soluble
MGSDKIHHHHHHMNPINWLVLVATVAGRNGTLRVRLWRQMKAIGAAALRDGVYLLPARPELRQMLANWRDELLAADGMAHVLQVVEDDPATQAGWRALFDRSEAYQQWGEALAALLAQPPGAESDARRSLRQLRKELEAIAAIDFFAGESLKSARRQCNDAEKWLTRHYSPDEPLAVGGDIPRLELADYQQRLWATRARPWVDRVASAWLIRRFIDPAARFAWLTDVHACPAEALGFDFDGAAFTHIGERVTFEVLLASFGLEHDPALSRLGELVHALDVGGSVVPEGTGFEAVLGGSRSRIADDDLLLADISNVLDSLYAHFQEAARPQGSRAPTL	not soluble
MQIITTTFIQKVILGSHQLHEQLSIVEARMIESAIVSMLTESFCENEQTLKYLARLLSPMSYMDVINARRGKKICGYPLCYKSAAENSSDGFFIHSMYCNNYHSKCSLYLMRQLSQTPLHERRGVHLTSYINLEFDDMYSVSLLEELVGSEVPIDTVKSLITSFKDLEFDDTYKNEPLPLDVYFGQLTTDEETCIE	not soluble
MGHHHHHHGGHMSLEEVLEAAEKIRSMEVRGAARIARFAAETLMKFAEKASDEKFDEEMRFAAETLLNTRPTAVSLYNAINYVMRYSGESVEEKRQSVIRRAREFINWVETAQRKIGEIGEKRIKDGYTVMTHCNSSAALSVIKKAHENGKRVEVIATESRPRWQGHLTVKQLREAGIEVTLIVDSAVRYFINEVDCVVVGADTITANGALINKIGTSQIALAAKEARVPFMVAAETYKFSPKTLFGELVVIEERDAREVAPEEILKLGVKVRNPAFDVTPRDYIDVIITEIGAIPPEMAYIVITERLGYAGIEEEEITLNSRHFDEGGS	soluble
MGSDKIHHHHHHMLNSLSIFEQAIRALPIDRSLTRQDLFIDGFLLQQEQELSVYYSPIGEYINRSAKIVFIGITPGFEQMRLAYEEAADAFHHGATIEETSKLVKYSASFAGPMRRNLTAMLDELELHRLLNIASTATLFHTNQELLHTTSILRHPVFYRDKNYTGHQPKIDRTPLLQHYAYEHFAAELNQLPDPVILVPFGRVVESTVRTLLHQGRIKKHTVLFGFPHPSGANGHRKRQFEENKDYLMKQLNSYFNT	not soluble
MGSDKIHHHHHHMNRSGTISGNNFQSTAAQTTAGPRESRLAASVCRIAPFYDFILRRKIMRQKIPLLASFKLTFRCNLSCLACPFHQRAGEEKANMSWSLARASLDALKHQGTLIVVFEGGEPFLWRDGRHDLHDLVNYAGRLFPRVAVTTNGTFPLDVPADILWVSLDGLKETHDRLRSGSFDRVWENLEQCSHGRLFVHFTINRENRHDIRPLLEKLKGIPAFRGMTVQLFYPYGQGEASLALSDLERKTVLEEVVAMKKQGFPILNSAGRLTAMINNDWRCHDDILINVDPDGAITPGCYVKSRGRINCRNCGFSPVSEASGALDLFPGSLKAGWSIFLK	not soluble
MGSDKIHHHHHHMEVLRTENLKSYYILDIFGKKRVVKAVDDVNISIMENEIYGIAGESGCGKSTLLRALFAAIEPPQRIVGGKVLYRENGKEVDVYSLSDEERRRLRWSFISYVPQGSMSVLNPVVKIKETFKDFIESHTTGKTKEEAYEMAKEHIKELGLPIEILNAYPHQLSGGMRQRVTIALATVLSPKVIIADEPTTALDVVTQRGVVQLLKEIQSSRQNTIILVTHDMGVHANVTDRIAIMYAGKIIEEGKTEEIFENPMHPYTKYLIYSLPKFGDKGRRESAPGSPPSLADLPPGCSFHPRCPHAFDRCKKEVPPLKEYLPGHRVACWLVEEGKNAAS	not soluble
MSLGRFVRHALITAGTKGLGKQVTEKLLAKGYSVTVTYHSDTTAMETMKETYKDVEERLQFVQADVTKKEDLHKIVEEAMSHFGKIDFLINNAGPYVFERKKLVDYEEDEWNEMIQGNLTAVFHLLKLVVPVMRKQNFGRIINYGFQGADSAPGWIYRSAFAAAKVGLVSLTKTVAYEEAEYGITANMVCPGDIIGEMKEATIQEARQLKEHNTPIGRSGTGEDIARTISFLCEDDSDMITGTIIEVTGAVDVIHREGHHHHHH	soluble
MATISSLGSSGLELEGILEKLQAAEEKKLTLITARQASYETRISAYSKIQAAVEAVQKAAATLGSIDTLSAVKAVVSGDGLSVKTAAGAVPGQYTVNIDKLATAQNLQSGELDSRTDKHGTGGSIEIVQKDGTTTTVTLGEDTSLNGIVKAINGTDGLDVRATVISDGNGKHYLMLNNKTEGTEAAVTRITVSGNQEVADILDFDAANAGASNLTVQLAAQKAELTINGIPVVSDTNTVETAIDGLTLTLTKQTAAPLTVTVSSDPSVAATAVNDFVKAYNGLQTTIADLTAFDVKAEKQSALTGDGTTRNIQSAIAAALRVATGEGTLRTLSQLGITTDPKTGSLKTDTEKLEAALRDNPADVARIFSGPFGLGEKVKLATEQILGDEGSIKIRQEGLEETLESLQNQYDRQKLSIAATIEAYRKQFVQLDVFVTQMNNTSNYLSQQFAALSGTKK	not soluble
MKNREIYAEMRCIPPVVLRADGRNFKNTLSGLGFEKPYDTTFARAMADTAELFIKKSGLSPYFAYTFSDEISFLFTDLPFDGRVEKIDSVVASFLGSALTIKLRLEAPIAFDSRLVALQKEEVSEYFHWRQLEAWRNFVASWGYYSLRNEGMGKDEAGKFLKGKKEWEIHEMLFERGINLAALPAWQRRGIIISKEECEISGFNPVYGKEVKSMRRRITQNWEIPKFKSEEGITFLEKLINRNMAGDPLEHHHHHH	not soluble
MGSDKIHHHHHHMTTRQPKTEADVLAETANLILDKYFHNQKNICTYDKIELARMLGLAEDNKKSDYALFHFIKALRYVVLGNFNEAINSYEATLRIPNSHAGILSNYATTLIILGELEQAKEMLIKCLNETDDGVSNLEYFANIIELYLLSTLDETLLQHAGNMKDSTLDKYSNILKLKTDINKIDISIQDYQEFTGVLIKFIFDKTRQIYQPRFSIDNGLDRQLNIEAFLNINPEEASYLNTEFRNQYLDYIFDNERHDLLGKFVVFFRQNKNREDGTEKPKAFYLGTNRELEA	not soluble
MRTLPSVLAAHLASGATTLCFAWRVTRRDGLVTGFTDHDRDLVVDGVTCKAASGISGSQSTLASGLSVTGAEVSGALSHDALSEDDLAAGLYDGAAIDHLLVNWQDPAQVLLLRRGTIGEVRAQDGVFTAEIRSLSDGLNQTRGRLLSSSCDADLGDARCGVDLTLPAHAASATVVAVEGALSLRVTGLSAFAQGAFARGRARLSSGANAGFVTEVKAHLVDAEGVLLRLWQRPPFAVAEGDGITLTAGCDKQLATCRDRFSNALNFRGFPHMPGNDFVIAVAIAGEGGYDGSLLE	soluble
MDKSELFLTFEAKVKGKKINLPDLKIADGVISTEALASALNASAAIAPDAFQRIIKQAYDANIMFLIQQAQIRAQEINKGEVKDWKDLVANAKDAPNQDVTVEVQAYASPDGGVELNEKLSEQREKNTTTALKKQFQKSNIKDVEINAHYTAQDWEGFKQLVEKSDIQDKELVLRVLSMYPDPEQREQEIKNISTVFRQLADDILPQLRRSRLIANVEIIGKSDDEIKRLAAQNPGRLTVEELLYSATLLESPAQKE	not soluble
